Assay results: publication PMC8280356, “Purification and Characterization of Nit_(phym), a Robust Thermostable Nitrilase From Paraburkholderia phymatum” (Frontiers in Bioengineering and Biotechnology, 2021)

Biological target: the molecule itself
Experiment: SEC; analytical gel filtration on Superdex 200 Increase 10/300 GL; 100 uL of purified protein at 3.9 mg/mL; mobile phase 50 mM Tris-HCl pH 8.0, 0.15 mM NaCl, 10% glycerol, 0.3 mL/min; elution volume compared to a calibration curve of proteins of known molecular weight

B1: Nit_(phym), nitrilase from Paraburkholderia phymatum DSM 17167 (enzyme, UniProt B2JQY2 1-340, looked up)
chain: MSDQRVIRAAAVQIAPDFERPGGTLDRVCAAIDEAASKGVQLIVFPETFVPYYPYFSFVRPPVASGADHMRLYEQAVVVPGPVTHAVSERARRHAMVVVLGVNERDHGSLYNTQLVFDIDGCQVLKRRKITPTFHERMIWGQGDAAGLKVARTGIARVGALACWEHYNPLARYALMTQHEEIHCSQFPGSLVGPIFAEQIEVTIRHHALESGCFVVNSTGWLSDAQIESVTTDPKLQKALRGGCMTAIVSPEGQHLAEPLREGEGMVVADLDMALITKRKRMMDSVGHYARPELLSLAINDRPAMPVVPMSMSFERAGADVAPEIISGGQDECQHEPVAG
notes: nitrilase Nit_(phym) (NIT188) from Paraburkholderia phymatum DSM 17167, Uniprot ID B2JQY2; subunit with an apparent molecular mass of 37 kDa on SDS-PAGE; also called NIT188
- stoichiometry N: > 18 subunits
